The assay addresses T1, protein VZV gE (amino acid sequence at positions 48 to 88) (varicella-zoster virus).
T1 peptide: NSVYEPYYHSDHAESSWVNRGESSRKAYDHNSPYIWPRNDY
Nature of the assay: ELISA, peptide coated on the plate, antibody at 5 ug/mL. (In an ELISA, binding on a coated surface is turned into a signal by an enzyme label.)

We go through 1 molecule from patent US20210332109A1 (TANAKA KIKINZOKU KOGYO K K, published 2021).

Experimental: After 16 hours, the gE solution was removed, and the well was washed three times with 300 μL of PBST (0.05% Tween 20 in PBS). The liquid remaining in the well was removed by tapping on a paper towel.
As a blocking solution, 300 μL of 5% BSA in PBST (BSA: manufactured by Oriental Yeast Co., Ltd.) was added, followed by incubation at 37° C. for 1 hour. Thereafter, the BSA solution was removed, and the well was washed three times with 300 μL of PBST (0.05% Tween 20 in PBS). The liquid remaining in the well was removed by tapping on a paper towel. […] Thereafter, the primary antibody solution was removed, and the well was washed three times with 300 μL of PBST (0.05% Tween 20 in PBS).

B1: Antibody 18 (antibody, V domains shown)
VH: EVQLQESGPGLVKPSQSLSLTCTVTGYSITSDYAWNWIRQFPGNKLEWMGYISYSGNSSYNPSLKSRISFTRDTSKNQFFLQLNSVTTEDTATYYCARDGSRGFDYWGQGTTLTVSS
VL: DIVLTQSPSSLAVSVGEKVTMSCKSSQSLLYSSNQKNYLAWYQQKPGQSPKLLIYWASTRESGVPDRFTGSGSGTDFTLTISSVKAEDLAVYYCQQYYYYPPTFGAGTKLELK
notes: also called antibody (II); monoclonal antibody produced by Hybridoma 18
With B1, the binding result is “binds”.
